Article PMC6023178, “Crystal structure of the C-terminal four-helix bundle of the potassium channel KCa3.1” (PLoS ONE, 2018)
Square brackets hold non-standard residues; d marks the D form. Ends that are not written are not given here. SeMet = C[Se]CC[C@H](N)C(=O)O

Experiments:
[1] = target: the molecule itself; assay: crystal structure; SeMet-containing KCa3.1-CC crystallised with 3 mM CuCl2; 0.1 M imidazole (pH 6.5), 1.0 M sodium acetate; space group P4212, 1.75 Å; four-helix bundle generated by the crystallographic four-fold axis
[2] = target: the molecule itself; assay: crystal structure; native KCa3.1-CC crystallised without copper (apo); 0.1 M imidazole (pH 6.5), 1.0 M sodium acetate; 1.75 Å, molecular replacement, only partially refined

B1: SeMet-containing KCa3.1-CC (C-terminal coiled-coil region of human KCa3.1, residues 376-415) (domain or fragment, UniProt O15554 376-415, looked up)
chain: [SeMet]ILYDLQQNLSSSHRALEKQIDTLAGKLDALTELLSTALG
notes: KCa3.1 (SK4, IK1), human, C-terminal coiled-coil region, residues 376-415; residues 376-414 are in the atomic model; Crystallised in the presence of 3 mM CuCl2; a Cu(II) ion is coordinated by the four copies of His389; also called SeMet KCa3.1-CC; SeMet SK4-CC (w/copper); source: E. coli B834(DE3), PASM-5052 auto-induction medium, purified (GST-trap, thrombin cleavage, Superdex 75); not shown: …
[1]
  stoichiometry N: 4

B2: native KCa3.1-CC (C-terminal coiled-coil region of human KCa3.1, residues 376-415) (domain or fragment, UniProt O15554 376-415, looked up)
chain: MILYDLQQNLSSSHRALEKQIDTLAGKLDALTELLSTALG
notes: KCa3.1 (SK4, IK1), human, C-terminal coiled-coil region, residues 376-415; Crystallised without copper (apo); also called native, apo KCa3.1-CC; source: E. coli BL21-Gold(DE3)pLysS, purified (GST-trap, thrombin cleavage, Superdex 75); not shown: GST, N-terminal, cleaved
[2]
  binding result: binds
